Measurements: publication PMC12098869, “An mRNA-display derived cyclic peptide scaffold reveals the substrate binding interactions of an N-terminal cysteine oxidase” (Nature Communications, 2025)

B1: RGS5_(2-15), synthetic peptide corresponding to the methionine excised N-terminus of RGS5, residues 2 to 15 [human] / 2-aminoethanethiol dioxygenase (ADO), full-length human, N-terminally His-tagged and biotinylated (pQE80L-Navi-ADO) … (parent complex)
chain 1: CKGLAALPHSCLER
chain 2: MPRDNMASLIQRIARQACLTFRGSGGGRGASDRDAASGPEAPMQPGFPENLSKLKSLLTQLRAEDLNIAPRKATLQPLPPNLPPVTYMHIYETDGFSLGVFLLKSGTSIPLHDHPGMHGMLKVLYGTVRISCMDKLDAGGGQRPRALPPEQQFEPPLQPREREAVRPGVLRSRAEYTEASGPCILTPHRDNLHQIDAVEGPAAFLDILAPPYDPDDGRDCHYYRVLEPVRPKEASSSACDLPREVWLLETPQADDFWCEGEPYPGPKVFP

Variants of: B1
Experiment: SPR; parent: 1; read off a plot

Row | ratio to parent | Variant
1 | ~9 | chain 2 MPRDNMASLIQRIARQACLTFRGSGGGRGASDRDAASGPEAPMQPGFPENLSKLKSLLTQLRAEDLNIAPRKATLQPLPPNLPPVTAMHIYETDGFSLGVFLLKSGTSIPLHDHPGMHGMLKVLYGTVRISCMDKLDAGGGQRPRALPPEQQFEPPLQPREREAVRPGVLRSRAEYTEASGPCILTPHRDNLHQIDAVEGPAAFLDILAPPYDPDDGRDCHYYRVLEPVRPKEASSSACDLPREVWLLETPQADDFWCEGEPYPGPKVFP [chain 2 Y87A]
2 | ~74 | chain 2 MPRDNMASLIQRIARQACLTFRGSGGGRGASDRDAASGPEAPMQPGFPENLSKLKSLLTQLRAEDLNIAPRKATLQPLPPNLPPVTYMHIYETDGFSLGVALLKSGTSIPLHDHPGMHGMLKVLYGTVRISCMDKLDAGGGQRPRALPPEQQFEPPLQPREREAVRPGVLRSRAEYTEASGPCILTPHRDNLHQIDAVEGPAAFLDILAPPYDPDDGRDCHYYRVLEPVRPKEASSSACDLPREVWLLETPQADDFWCEGEPYPGPKVFP [chain 2 F101A]
